Read-outs that look alike come from different tables or passages of the source.

Common to all, as to experiment: cell-based or functional assay
One assay deals with transferrin receptor (UniProt P02786).
For assay [1], the target named is human mesothelin (human) (UniProt Q13421).
The target is the same in assay [2]. The source holds these as a separate data set.

Chain of UniProt Q13421 (Q13421 other isoform, or with tags, fused parts or gaps): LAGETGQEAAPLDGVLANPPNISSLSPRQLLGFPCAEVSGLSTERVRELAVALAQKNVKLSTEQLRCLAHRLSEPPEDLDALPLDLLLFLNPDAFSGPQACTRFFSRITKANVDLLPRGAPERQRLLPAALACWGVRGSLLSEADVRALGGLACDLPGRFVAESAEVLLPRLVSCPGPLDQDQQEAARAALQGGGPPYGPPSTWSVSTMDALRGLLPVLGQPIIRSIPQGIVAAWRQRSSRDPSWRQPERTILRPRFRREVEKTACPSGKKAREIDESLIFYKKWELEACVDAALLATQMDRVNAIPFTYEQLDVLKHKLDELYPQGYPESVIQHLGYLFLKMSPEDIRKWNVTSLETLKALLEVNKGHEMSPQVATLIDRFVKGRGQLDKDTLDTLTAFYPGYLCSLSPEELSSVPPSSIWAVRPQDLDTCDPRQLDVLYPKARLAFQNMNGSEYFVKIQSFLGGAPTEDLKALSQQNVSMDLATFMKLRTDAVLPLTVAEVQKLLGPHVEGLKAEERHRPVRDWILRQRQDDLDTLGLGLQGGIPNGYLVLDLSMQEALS
Chain of UniProt P02786 (P02786 whole entry): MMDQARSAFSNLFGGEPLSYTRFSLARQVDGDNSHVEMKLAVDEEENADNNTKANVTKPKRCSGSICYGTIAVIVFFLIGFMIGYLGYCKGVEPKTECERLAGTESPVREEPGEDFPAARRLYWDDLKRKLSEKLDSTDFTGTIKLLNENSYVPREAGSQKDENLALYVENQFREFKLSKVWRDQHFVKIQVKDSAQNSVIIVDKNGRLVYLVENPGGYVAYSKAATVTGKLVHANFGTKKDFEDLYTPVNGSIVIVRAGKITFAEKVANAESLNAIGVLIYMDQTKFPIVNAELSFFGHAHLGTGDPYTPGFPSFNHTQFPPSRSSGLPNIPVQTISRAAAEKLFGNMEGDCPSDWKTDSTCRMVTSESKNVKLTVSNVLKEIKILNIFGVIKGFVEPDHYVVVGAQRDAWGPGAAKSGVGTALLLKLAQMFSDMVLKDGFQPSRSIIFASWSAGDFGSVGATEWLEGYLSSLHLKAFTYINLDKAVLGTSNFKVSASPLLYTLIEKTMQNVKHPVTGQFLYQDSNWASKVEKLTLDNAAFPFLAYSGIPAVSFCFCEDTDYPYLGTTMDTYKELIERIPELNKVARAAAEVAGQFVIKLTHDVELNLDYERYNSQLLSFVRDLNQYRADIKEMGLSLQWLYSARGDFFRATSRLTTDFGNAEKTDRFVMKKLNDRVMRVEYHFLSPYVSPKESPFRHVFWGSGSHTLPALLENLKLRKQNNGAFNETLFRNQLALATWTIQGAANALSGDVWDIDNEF

In the assay with transferrin receptor, HB21 (anti-transferrin receptor/PE38) came in with a reduction of viability of patient cells NCI-M-02 and NCI-M-03 (crystal violet) of 90%.
In the case of “SS1P (SS1 (dsFv)-PE38) (from UniProt P11439 278-638)”, in the assay with human mesothelin (human) [1], the EC50 (ng/ml), cytotoxicity WST-8, A431/K5 cells is 0.17 ng/mL; the EC50 (ng/ml), cytotoxicity WST-8, A1847 cells stood at 4.59 ng/mL; the EC50 (ng/ml), cytotoxicity WST-8, HAY cells worked out at 4.79 ng/mL; the EC50 (ng/ml), cytotoxicity WST-8, KB31 cells was 0.47 ng/mL. Further, in the assay with human mesothelin (human) [1], the EC50 (ng/ml), cytotoxicity WST-8, L55 cells was determined as 5.32 ng/mL; the EC50 (ng/ml), cytotoxicity WST-8, M30 cells stood at 2.56 ng/mL; the EC50 (ng/ml), cytotoxicity WST-8, OVACR-8 cells was found to be 1.4 ng/mL; the decrease in viability of patient cells NCI-M-02 and NCI-M-03 (crystal violet) is over 65%. This substance also displayed a decrease in viability of patient cells NCI-M-16 and NCI-M-19 (crystal violet) with human mesothelin (human) [1] of over 75%. The decrease in viability of patient cells NCI-M-02 and NCI-M-03 (crystal violet) in the assay with human mesothelin (human) [2] is over 60%.
